What was measured:
[1] = tested on: PD-L1 expressing MDA-MB-231 cells; assay: Cell binding analysis by FACS, MDA-MB-231 cells; assay type: cell-based; conditions: 0.625 μg/ml complex or antibody (anti-PD-L1 antibody 1 μg/ml), negative control 69
Protocol: Cells incubated with buffer alone were used as negative controls. The cells were incubated for 1 h at 8° C. in the dark, washed twice with 100 μl staining buffer, and resuspended in 100 μl of staining buffer containing 2.5 μg/ml of a goat-anti-human IgG-Alexa488 (Molecular Probes, cat. no. A11013) or, for cells stained with the positive control antibody, goat anti-mouse IgG-Alexa647 antibody (Life Technologies, cat. No. A21236). The cells were incubated for 1 h at 8° C. in the dark, washed twice with 100 μl staining buffer and resuspended in 300 μl of staining buffer. Data from 10,000 cells were obtained using a FACS Calibur ([…]) and the data was analyzed using Flowing software 2.5.0 (Turku University). Mean fluorescence intensity (MFI) was used as a read out of binding capacity.

[2] = Circular dichroism (CD) spectroscopy, variable temperature measurement; assay type: physicochemical; conditions: 1 mM EDTA, pH 7.2; for Tm (° C.): 0.5 mg/ml in 20 mM HEPES, VTM 20 to 90° C. at 221 nm; for refolding, CD spectra before and after heating to 90° C.: 20 mM HEPES
Protocol: Circular dichroism (CD) spectroscopy analysis: Two purified Z variants with a C-terminal cysteine, Z15168-Cys (SEQ ID NO:809) and Z15169-Cys (SEQ ID NO:810), were diluted to 0.5 mg/ml in 20 mM HEPES, 1 mM EDTA, pH 7.2. For each diluted Z variant, a CD spectrum at 250-195 nm was obtained at 20° C. In addition, a variable temperature measurement (VTM) was performed to determine the melting temperature (Tm). In the VTM, the absorbance was measured at 221 nm while the temperature was raised from 20 to 90° C., with a temperature slope of 5° C./min. A new CD spectrum was obtained at 20° C. after the heating procedure in order to study the refolding ability of the Z variants. The CD measurements were performed on a Jasco J-810 spectropolarimeter (Jasco Scandinavia AB) using a cell with an optical path length of 1 mm.
Circular dichroism (CD) spectroscopy analysis: A subset of the purified Hiss-tagged Z variants were analyzed by CD spectroscopy as described in Example 3, but with the exceptions that the analysis buffer was PBS and that the temperature was raised to 80° C. in the VTM.

[3] = tested on: MDA-MB-231 cells co-cultivated with PBMC; assay: Co-culture of MDA-MB-231 and PBMC (mixed lymphocyte assay); assay type: cell-based; conditions: six days co-culture with PBMC; 200-0.064 nM
Protocol: Co-culture of MDA-MB-231 and PBMC: A mixed lymphocyte assay was used to analyze if the Ipi-based complexes could affect proliferation or the cytotoxic effect of T-cells and thereby increase the elimination of cancer cells. Herein, peripheral blood mononuclear cells (PBMC) and MDA-MB-231 cells were co-cultivated for six days and the number of T-cells and cancer cells were assessed. 20000 MDA-MB-231 cells, cultivated in DMEM containing 10% FBS, were pipetted per well of a flat-bottomed 96-well plate and were left to adhere to the bottom of the well by incubation at 37° C. in a humidified 5% CO2 atmosphere. Day 2 of the experiment, serial dilutions (200-0.064 nM) of the Ipi-based complexes were prepared in a separate plate using RPM11640 with L-glut (Lonza) supplemented with 10% FCS, and 1% Pen-Strep (Lonza, cat. no. DE17-603E). The DMEM medium was discarded from the MDA-MB-231 cells and 100 μl of the diluted complexes were added. PBMC were prepared form a buffy coat using Ficoll Paque PLUS (GE Healthcare, cat no. 17-1440-02). In brief, the buffy coat was diluted 2× in PBS. […] The cells were counted and adjusted to 1 million cells per ml in supplemented RPMI medium. […] At day 7 of the experiment, the number of MDA-MD-231 cells and CD3+ T-cells were counted by FACS. […]

Row | Substance | MFI [1] | Tm (° C.) [2] [°C] | refolding, CD spectra before and after heating to 90° C. [2] | number of MDA-MB231 cells [3]
1 | Lam: control antibody having the same CDR sequences and specificity as PD-1 targeting pembrolizumab; SEQ ID NO:815 and 816 | 62 | – | – | –
2 | Z15168-Cys: Z13091 mutated to start with AE instead of VD, with C-terminal addition of VDC | – | 50 | Reversible folding | –
3 | Z15169-Cys: Z13156 mutated to start with AE instead of VD, with C-terminal addition of VDC | – | 58 | Reversible folding | –
4 | ipilimumab [reference compound] | – | – | – | did not induce a concentration dependent decrease of the cancer cells
